Literature values, collected in article PMC7226344.

Legend:
[1] = target: Cav3.2 (Homo sapiens) (UniProt O95180)
[2] = target: Cav3.1 (Rattus norvegicus) (UniProt O54898)
UniProt O54898, sequence (O54898 whole entry): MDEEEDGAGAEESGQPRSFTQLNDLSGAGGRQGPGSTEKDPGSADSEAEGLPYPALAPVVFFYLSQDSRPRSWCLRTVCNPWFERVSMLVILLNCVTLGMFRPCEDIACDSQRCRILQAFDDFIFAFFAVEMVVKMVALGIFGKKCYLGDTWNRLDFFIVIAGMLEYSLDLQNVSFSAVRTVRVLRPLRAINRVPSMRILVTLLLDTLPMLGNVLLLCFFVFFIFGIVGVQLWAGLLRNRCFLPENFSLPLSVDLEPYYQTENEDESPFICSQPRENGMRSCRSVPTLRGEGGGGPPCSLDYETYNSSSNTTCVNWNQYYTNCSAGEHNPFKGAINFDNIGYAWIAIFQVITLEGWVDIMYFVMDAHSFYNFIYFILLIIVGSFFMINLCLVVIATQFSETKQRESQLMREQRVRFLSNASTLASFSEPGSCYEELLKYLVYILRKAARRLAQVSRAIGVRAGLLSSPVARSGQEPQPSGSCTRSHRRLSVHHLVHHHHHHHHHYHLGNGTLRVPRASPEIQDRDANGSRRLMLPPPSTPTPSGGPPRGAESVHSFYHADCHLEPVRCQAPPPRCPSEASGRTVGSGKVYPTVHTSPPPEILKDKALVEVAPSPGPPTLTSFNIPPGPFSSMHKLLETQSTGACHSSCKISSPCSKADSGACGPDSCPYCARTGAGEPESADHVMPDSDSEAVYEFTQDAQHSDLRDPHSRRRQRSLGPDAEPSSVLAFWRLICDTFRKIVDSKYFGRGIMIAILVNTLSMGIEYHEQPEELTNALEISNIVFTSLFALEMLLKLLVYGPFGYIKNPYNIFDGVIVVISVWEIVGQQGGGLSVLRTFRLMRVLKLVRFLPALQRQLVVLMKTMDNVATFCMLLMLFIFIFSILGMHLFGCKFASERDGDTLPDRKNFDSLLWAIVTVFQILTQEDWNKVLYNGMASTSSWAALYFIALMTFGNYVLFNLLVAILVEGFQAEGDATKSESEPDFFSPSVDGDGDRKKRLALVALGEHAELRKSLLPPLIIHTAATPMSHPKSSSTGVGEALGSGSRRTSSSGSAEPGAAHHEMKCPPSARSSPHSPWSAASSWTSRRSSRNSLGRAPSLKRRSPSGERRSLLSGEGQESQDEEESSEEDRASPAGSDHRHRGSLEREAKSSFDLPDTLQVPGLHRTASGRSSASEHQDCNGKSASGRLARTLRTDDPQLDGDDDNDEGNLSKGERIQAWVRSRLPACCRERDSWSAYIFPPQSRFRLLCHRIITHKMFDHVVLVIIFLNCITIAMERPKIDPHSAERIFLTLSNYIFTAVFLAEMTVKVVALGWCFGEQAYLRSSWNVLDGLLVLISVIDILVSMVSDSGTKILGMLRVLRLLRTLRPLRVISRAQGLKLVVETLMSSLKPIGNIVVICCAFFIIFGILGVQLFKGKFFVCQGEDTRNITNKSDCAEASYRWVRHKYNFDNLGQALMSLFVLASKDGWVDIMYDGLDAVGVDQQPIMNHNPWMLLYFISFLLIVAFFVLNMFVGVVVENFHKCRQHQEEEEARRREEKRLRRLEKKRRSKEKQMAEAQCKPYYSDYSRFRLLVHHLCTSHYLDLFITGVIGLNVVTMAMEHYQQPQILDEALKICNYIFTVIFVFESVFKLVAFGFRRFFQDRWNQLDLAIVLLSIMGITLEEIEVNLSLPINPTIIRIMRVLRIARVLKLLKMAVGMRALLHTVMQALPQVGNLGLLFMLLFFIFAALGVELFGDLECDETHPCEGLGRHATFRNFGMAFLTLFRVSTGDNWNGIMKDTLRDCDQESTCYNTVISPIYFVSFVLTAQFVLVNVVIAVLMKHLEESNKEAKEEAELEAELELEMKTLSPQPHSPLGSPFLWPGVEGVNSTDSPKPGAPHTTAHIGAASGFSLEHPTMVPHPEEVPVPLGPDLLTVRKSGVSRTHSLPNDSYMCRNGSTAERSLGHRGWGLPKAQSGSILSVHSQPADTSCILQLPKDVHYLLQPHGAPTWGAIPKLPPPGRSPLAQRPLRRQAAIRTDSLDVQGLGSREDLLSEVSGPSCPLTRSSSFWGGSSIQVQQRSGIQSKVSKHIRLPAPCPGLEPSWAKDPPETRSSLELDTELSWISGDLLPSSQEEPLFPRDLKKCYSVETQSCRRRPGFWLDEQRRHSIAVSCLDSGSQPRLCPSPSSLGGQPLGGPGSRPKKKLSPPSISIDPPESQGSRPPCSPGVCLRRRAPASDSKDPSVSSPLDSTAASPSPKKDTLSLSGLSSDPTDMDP

UniProt O95180, sequence (O95180 whole entry): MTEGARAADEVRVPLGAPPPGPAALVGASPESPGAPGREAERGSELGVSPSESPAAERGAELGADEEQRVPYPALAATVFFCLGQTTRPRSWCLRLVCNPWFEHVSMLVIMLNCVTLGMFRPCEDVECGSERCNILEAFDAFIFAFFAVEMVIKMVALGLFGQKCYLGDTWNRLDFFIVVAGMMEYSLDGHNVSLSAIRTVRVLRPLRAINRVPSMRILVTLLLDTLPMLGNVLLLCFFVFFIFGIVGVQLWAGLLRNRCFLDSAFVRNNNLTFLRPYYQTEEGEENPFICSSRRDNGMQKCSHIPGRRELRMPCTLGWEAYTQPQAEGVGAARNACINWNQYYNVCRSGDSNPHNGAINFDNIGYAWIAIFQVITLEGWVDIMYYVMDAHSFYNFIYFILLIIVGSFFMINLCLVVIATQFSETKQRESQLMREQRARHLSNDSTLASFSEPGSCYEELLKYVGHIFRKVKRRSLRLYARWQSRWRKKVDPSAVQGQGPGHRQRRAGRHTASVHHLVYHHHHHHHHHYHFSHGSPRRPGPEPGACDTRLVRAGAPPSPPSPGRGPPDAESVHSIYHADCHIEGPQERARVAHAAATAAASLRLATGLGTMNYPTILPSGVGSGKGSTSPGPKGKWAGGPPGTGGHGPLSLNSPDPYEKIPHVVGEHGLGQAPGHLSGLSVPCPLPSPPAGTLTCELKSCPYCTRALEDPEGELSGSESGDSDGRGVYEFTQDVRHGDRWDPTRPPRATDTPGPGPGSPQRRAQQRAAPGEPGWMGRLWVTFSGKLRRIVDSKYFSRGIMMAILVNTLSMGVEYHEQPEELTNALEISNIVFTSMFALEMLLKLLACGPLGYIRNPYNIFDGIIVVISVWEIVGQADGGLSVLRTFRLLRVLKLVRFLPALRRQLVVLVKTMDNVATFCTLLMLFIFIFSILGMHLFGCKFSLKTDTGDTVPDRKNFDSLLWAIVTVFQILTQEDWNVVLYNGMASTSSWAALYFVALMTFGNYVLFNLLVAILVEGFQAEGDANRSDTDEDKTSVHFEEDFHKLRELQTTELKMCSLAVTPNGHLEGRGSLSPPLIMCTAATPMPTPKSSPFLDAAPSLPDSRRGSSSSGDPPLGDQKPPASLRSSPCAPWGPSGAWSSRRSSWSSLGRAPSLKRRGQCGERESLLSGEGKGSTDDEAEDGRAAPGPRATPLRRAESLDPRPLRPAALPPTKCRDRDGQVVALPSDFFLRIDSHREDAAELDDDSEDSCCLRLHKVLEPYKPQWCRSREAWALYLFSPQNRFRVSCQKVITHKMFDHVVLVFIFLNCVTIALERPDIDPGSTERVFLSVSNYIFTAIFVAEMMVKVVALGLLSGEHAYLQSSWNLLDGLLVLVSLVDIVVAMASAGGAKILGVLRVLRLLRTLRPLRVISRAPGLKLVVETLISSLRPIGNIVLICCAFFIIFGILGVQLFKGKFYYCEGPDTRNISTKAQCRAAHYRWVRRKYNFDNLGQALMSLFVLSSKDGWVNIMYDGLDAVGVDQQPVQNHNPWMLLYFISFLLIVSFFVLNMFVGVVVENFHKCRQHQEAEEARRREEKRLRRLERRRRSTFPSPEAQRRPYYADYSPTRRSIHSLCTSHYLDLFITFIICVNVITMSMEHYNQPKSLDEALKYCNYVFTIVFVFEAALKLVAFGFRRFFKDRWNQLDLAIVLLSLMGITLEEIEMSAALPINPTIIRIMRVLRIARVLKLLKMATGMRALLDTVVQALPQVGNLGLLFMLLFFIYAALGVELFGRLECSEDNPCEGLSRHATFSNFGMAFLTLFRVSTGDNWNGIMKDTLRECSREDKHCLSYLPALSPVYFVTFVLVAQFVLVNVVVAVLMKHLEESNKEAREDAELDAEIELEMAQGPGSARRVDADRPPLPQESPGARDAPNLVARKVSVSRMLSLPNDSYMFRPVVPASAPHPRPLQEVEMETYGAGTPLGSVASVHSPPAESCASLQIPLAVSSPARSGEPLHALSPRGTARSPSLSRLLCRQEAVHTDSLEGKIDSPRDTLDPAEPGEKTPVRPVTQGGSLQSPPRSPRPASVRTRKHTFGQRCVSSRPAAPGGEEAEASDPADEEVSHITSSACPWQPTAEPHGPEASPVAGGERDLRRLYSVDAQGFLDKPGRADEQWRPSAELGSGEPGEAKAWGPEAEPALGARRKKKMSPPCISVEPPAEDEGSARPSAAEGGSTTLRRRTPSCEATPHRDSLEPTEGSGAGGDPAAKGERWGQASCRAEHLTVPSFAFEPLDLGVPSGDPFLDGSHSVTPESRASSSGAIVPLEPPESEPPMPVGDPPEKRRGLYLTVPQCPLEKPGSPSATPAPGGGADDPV

Which Kd [1] does the source give for kurtoxin (from UniProt P58910) here?
Its Kd is 61 nM.

And the Kd [2]?
Its Kd is 15 nM.
